Source: PMC10643132

Columns and labels:
[1] = target: biotinylated Ub (biotin maleimide on an N-terminal cysteine) (UniProt P0CG48); assay: METRIS (mechanically transduced immunosorbent assay); biotinylated APC/C (with or without CDH1) on streptavidin ferromagnetic beads rolling on streptavidin wells coated with biotinylated CycB^N, Ub–CycB^N or Ub; rotating field 1 Hz; rolling parameter (RP); relative measure; no UbV added
[2] = target: biotin–CycB^N* (AviTag–Cyclin B (1–88)–Cys–6xHis, biotinylated, Alexa488-labeled) (UniProt P14635); assay: as above
Sequence of biotin–CycB^N* (AviTag–Cyclin B (1–88)–Cys–6xHis, biotinylated, Alexa488-labeled) (P14635 other isoform, or with tags, fused parts or gaps): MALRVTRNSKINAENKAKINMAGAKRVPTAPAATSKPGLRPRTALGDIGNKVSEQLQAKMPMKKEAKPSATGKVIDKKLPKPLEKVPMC

[3] = target: biotinylated Ub–CycB^N (AviTag–Ub–Cyclin B (1–88)–Cys–6xHis) (UniProt P0CG48); assay: as above
[4] = target: biotinylated Ub–CycB^N (AviTag–Ub–Cyclin B (1–88)–Cys–6xHis) (UniProt P0CG48); assay: METRIS (mechanically transduced immunosorbent assay); as a7, surface of Ub–CycB^N, UbV^CDH1 added as competitor (concentration not stated)
[5] = target: biotinylated Ub (biotin maleimide on an N-terminal cysteine) (UniProt P0CG48); assay: METRIS (mechanically transduced immunosorbent assay); as a7, surface of Ub, UbV^RING and UbV^CDH1 both added as competitors (concentrations not given)

biotinylated APC/C^CDH1 (biotinylated APC/C with HaloTag, AviTag and Twin-Strep(II)-tag on APC4, incubated with CDH1 on the beads) (from UniProt Q9UJX6 1-822; P30260 1-824; Q9UJX5 1-808; Q9UJX3 1-565; Q9UJX2 1-595; Q9UM13 4-185; Q9NYG5 1-84; Q9UM11 1-496) (complex)
rolling parameter (RP) [1]: 0.17 | rolling parameter (RP) [2]: 0.15 | rolling parameter (RP) [3]: 0.21 | rolling parameter (RP) with UbV^CDH1 added [4]: 0.19 | rolling parameter (RP) with UbV^RING and UbV^CDH1 added [5]: 0.13
